# Numbered stars: 1 amine (or outer) side, 2 acyl side, 3 side chain; on linkers, the order of the positions; unused ones are H or OH. Square brackets hold non-standard residues; d marks the D form. Side chains are listed from the residue outwards. Ends that are not written are not given here. * marks the point of attachment. C20 diacid = O=C(O)CCCCCCCCCCCCCCCCCCC(=O)*; γGlu = O=C(O)[C@H](CCC(=O)[*:2])N[*:1]; AEEA = NCCOCCOCC(=O)O; Aib = CC(C)(N)C(=O)O
# T1: human GIP receptor (human, UniProt P48546 22-466)
# T1 construct: whole, on cells; Used as crude membranes of stably transfected CHO cells; also called hGIPR
# T1 sequence (looked up): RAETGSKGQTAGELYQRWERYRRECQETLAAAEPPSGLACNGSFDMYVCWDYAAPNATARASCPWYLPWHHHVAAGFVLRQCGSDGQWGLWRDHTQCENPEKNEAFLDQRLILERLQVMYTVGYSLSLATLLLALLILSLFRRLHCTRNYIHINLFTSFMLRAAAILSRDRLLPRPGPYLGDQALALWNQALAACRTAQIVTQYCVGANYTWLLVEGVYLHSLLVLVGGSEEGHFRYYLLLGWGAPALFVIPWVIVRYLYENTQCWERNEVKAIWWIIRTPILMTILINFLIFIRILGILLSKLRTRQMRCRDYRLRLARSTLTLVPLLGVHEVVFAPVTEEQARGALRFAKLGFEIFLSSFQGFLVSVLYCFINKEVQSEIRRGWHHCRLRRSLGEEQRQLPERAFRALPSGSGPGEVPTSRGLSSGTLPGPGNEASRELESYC
# B1: Example 34 (peptide)
# peptide: Y[Aib]EGTFTSDYSILLDKIAQ[Aib]AFIK([AEEA-AEEA-γGlu-C20 diacid])YLIEGGPSSGAPPPS-NH2
# modifications: N-terminus assumed
# SMILES: CC[C@H](C)[C@H](NC(=O)[C@H](CCCCN)NC(=O)[C@H](CC(=O)O)NC(=O)[C@H](CC(C)C)NC(=O)[C@H](CC(C)C)NC(=O)[C@@H](NC(=O)[C@H](CO)NC(=O)[C@H](Cc1ccc(O)cc1)NC(=O)[C@H](CC(=O)O)NC(=O)[C@H](CO)NC(=O)[C@@H](NC(=O)[C@H](Cc1ccccc1)NC(=O)[C@@H](NC(=O)CNC(=O)[C@H](CCC(=O)O)NC(=O)C(C)(C)NC(=O)[C@@H](N)Cc1ccc(O)cc1)[C@@H](C)O)[C@@H](C)O)[C@@H](C)CC)C(=O)N[C@@H](C)C(=O)N[C@@H](CCC(N)=O)C(=O)NC(C)(C)C(=O)N[C@@H](C)C(=O)N[C@@H](Cc1ccccc1)C(=O)N[C@H](C(=O)N[C@@H](CCCCNC(=O)COCCOCCNC(=O)COCCOCCNC(=O)CC[C@H](NC(=O)CCCCCCCCCCCCCCCCCCC(=O)O)C(=O)O)C(=O)N[C@@H](Cc1ccc(O)cc1)C(=O)N[C@@H](CC(C)C)C(=O)N[C@H](C(=O)N[C@@H](CCC(=O)O)C(=O)NCC(=O)NCC(=O)N1CCC[C@H]1C(=O)N[C@@H](CO)C(=O)N[C@@H](CO)C(=O)NCC(=O)N[C@@H](C)C(=O)N1CCC[C@H]1C(=O)N1CCC[C@H]1C(=O)N1CCC[C@H]1C(=O)N[C@@H](CO)C(N)=O)[C@@H](C)CC)[C@@H](C)CC
# B2: Example 36 (peptide)
# peptide: Y[Aib]EGTFTSDYSILLDKIAQ[Aib]AFIEYLK([AEEA-AEEA-γGlu-C20 diacid])EGGPSSGAPPPS-NH2
# modifications: N-terminus assumed
# SMILES: CC[C@H](C)[C@H](NC(=O)[C@H](CCCCN)NC(=O)[C@H](CC(=O)O)NC(=O)[C@H](CC(C)C)NC(=O)[C@H](CC(C)C)NC(=O)[C@@H](NC(=O)[C@H](CO)NC(=O)[C@H](Cc1ccc(O)cc1)NC(=O)[C@H](CC(=O)O)NC(=O)[C@H](CO)NC(=O)[C@@H](NC(=O)[C@H](Cc1ccccc1)NC(=O)[C@@H](NC(=O)CNC(=O)[C@H](CCC(=O)O)NC(=O)C(C)(C)NC(=O)[C@@H](N)Cc1ccc(O)cc1)[C@@H](C)O)[C@@H](C)O)[C@@H](C)CC)C(=O)N[C@@H](C)C(=O)N[C@@H](CCC(N)=O)C(=O)NC(C)(C)C(=O)N[C@@H](C)C(=O)N[C@@H](Cc1ccccc1)C(=O)N[C@H](C(=O)N[C@@H](CCC(=O)O)C(=O)N[C@@H](Cc1ccc(O)cc1)C(=O)N[C@@H](CC(C)C)C(=O)N[C@@H](CCCCNC(=O)COCCOCCNC(=O)COCCOCCNC(=O)CC[C@H](NC(=O)CCCCCCCCCCCCCCCCCCC(=O)O)C(=O)O)C(=O)N[C@@H](CCC(=O)O)C(=O)NCC(=O)NCC(=O)N1CCC[C@H]1C(=O)N[C@@H](CO)C(=O)N[C@@H](CO)C(=O)NCC(=O)N[C@@H](C)C(=O)N1CCC[C@H]1C(=O)N1CCC[C@H]1C(=O)N1CCC[C@H]1C(=O)N[C@@H](CO)C(N)=O)[C@@H](C)CC
# B3: Example 37 (peptide)
# peptide: Y[Aib]EGTFTSDYSILLDKIAQ[Aib]AFIEYLIK([AEEA-AEEA-γGlu-C20 diacid])GGPSSGAPPPS-NH2
# modifications: N-terminus assumed
# SMILES: CC[C@H](C)[C@H](NC(=O)[C@H](CCCCN)NC(=O)[C@H](CC(=O)O)NC(=O)[C@H](CC(C)C)NC(=O)[C@H](CC(C)C)NC(=O)[C@@H](NC(=O)[C@H](CO)NC(=O)[C@H](Cc1ccc(O)cc1)NC(=O)[C@H](CC(=O)O)NC(=O)[C@H](CO)NC(=O)[C@@H](NC(=O)[C@H](Cc1ccccc1)NC(=O)[C@@H](NC(=O)CNC(=O)[C@H](CCC(=O)O)NC(=O)C(C)(C)NC(=O)[C@@H](N)Cc1ccc(O)cc1)[C@@H](C)O)[C@@H](C)O)[C@@H](C)CC)C(=O)N[C@@H](C)C(=O)N[C@@H](CCC(N)=O)C(=O)NC(C)(C)C(=O)N[C@@H](C)C(=O)N[C@@H](Cc1ccccc1)C(=O)N[C@H](C(=O)N[C@@H](CCC(=O)O)C(=O)N[C@@H](Cc1ccc(O)cc1)C(=O)N[C@@H](CC(C)C)C(=O)N[C@H](C(=O)N[C@@H](CCCCNC(=O)COCCOCCNC(=O)COCCOCCNC(=O)CC[C@H](NC(=O)CCCCCCCCCCCCCCCCCCC(=O)O)C(=O)O)C(=O)NCC(=O)NCC(=O)N1CCC[C@H]1C(=O)N[C@@H](CO)C(=O)N[C@@H](CO)C(=O)NCC(=O)N[C@@H](C)C(=O)N1CCC[C@H]1C(=O)N1CCC[C@H]1C(=O)N1CCC[C@H]1C(=O)N[C@@H](CO)C(N)=O)[C@@H](C)CC)[C@@H](C)CC
# B4: Example 39 (peptide)
# peptide: Y[Aib]EGTFTSDYSILLDKIAQ[Aib]AFIEYLIEGK([AEEA-AEEA-γGlu-C20 diacid])PSSGAPPPS-NH2
# modifications: N-terminus assumed
# SMILES: CC[C@H](C)[C@H](NC(=O)[C@H](CCCCN)NC(=O)[C@H](CC(=O)O)NC(=O)[C@H](CC(C)C)NC(=O)[C@H](CC(C)C)NC(=O)[C@@H](NC(=O)[C@H](CO)NC(=O)[C@H](Cc1ccc(O)cc1)NC(=O)[C@H](CC(=O)O)NC(=O)[C@H](CO)NC(=O)[C@@H](NC(=O)[C@H](Cc1ccccc1)NC(=O)[C@@H](NC(=O)CNC(=O)[C@H](CCC(=O)O)NC(=O)C(C)(C)NC(=O)[C@@H](N)Cc1ccc(O)cc1)[C@@H](C)O)[C@@H](C)O)[C@@H](C)CC)C(=O)N[C@@H](C)C(=O)N[C@@H](CCC(N)=O)C(=O)NC(C)(C)C(=O)N[C@@H](C)C(=O)N[C@@H](Cc1ccccc1)C(=O)N[C@H](C(=O)N[C@@H](CCC(=O)O)C(=O)N[C@@H](Cc1ccc(O)cc1)C(=O)N[C@@H](CC(C)C)C(=O)N[C@H](C(=O)N[C@@H](CCC(=O)O)C(=O)NCC(=O)N[C@@H](CCCCNC(=O)COCCOCCNC(=O)COCCOCCNC(=O)CC[C@H](NC(=O)CCCCCCCCCCCCCCCCCCC(=O)O)C(=O)O)C(=O)N1CCC[C@H]1C(=O)N[C@@H](CO)C(=O)N[C@@H](CO)C(=O)NCC(=O)N[C@@H](C)C(=O)N1CCC[C@H]1C(=O)N1CCC[C@H]1C(=O)N1CCC[C@H]1C(=O)N[C@@H](CO)C(N)=O)[C@@H](C)CC)[C@@H](C)CC
# Legend:
# human GIP receptor = target: T1, human GIP receptor; assay: SPA, [125I]-GIP displacement, hGIPR membranes
# human glucagon receptor = target: T2, human glucagon receptor (human, UniProt P47871 26-477); assay: SPA, [125I]-Gcg displacement, hGcgR membranes
# T2 construct: whole, on cells; Used as crude membranes of stably transfected HEK293 cells; also called hGcgR; hGLcgR
# T2 sequence (P47871 26-477): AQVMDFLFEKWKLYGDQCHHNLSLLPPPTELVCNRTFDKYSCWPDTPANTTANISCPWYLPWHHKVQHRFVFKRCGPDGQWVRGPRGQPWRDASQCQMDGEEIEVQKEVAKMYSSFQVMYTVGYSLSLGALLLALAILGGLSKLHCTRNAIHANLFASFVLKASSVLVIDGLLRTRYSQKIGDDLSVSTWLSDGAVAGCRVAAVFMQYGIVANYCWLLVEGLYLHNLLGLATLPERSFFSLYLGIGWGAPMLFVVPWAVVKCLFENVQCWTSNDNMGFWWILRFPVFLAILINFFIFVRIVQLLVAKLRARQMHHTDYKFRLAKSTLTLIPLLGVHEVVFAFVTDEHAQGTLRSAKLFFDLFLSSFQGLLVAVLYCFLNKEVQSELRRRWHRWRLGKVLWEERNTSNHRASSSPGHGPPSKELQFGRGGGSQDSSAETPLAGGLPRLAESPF
# human GLP-1 receptor = target: T3, human GLP-1 receptor (human, UniProt P43220 24-463); assay: SPA, [125I]-GLP-1 displacement, hGLP-1R membranes
# T3 construct: whole, on cells; Used as crude membranes of stably transfected HEK293 cells; also called hGLP1R; hGLP-1R
binder,measurement,setting,value
B1,Ki,human GIP receptor,0.0467 nM
same,Ki,human glucagon receptor,134 nM
same,Ki,human GLP-1 receptor,3.41 nM
B2,Ki,human GIP receptor,0.141 nM
same,Ki,human glucagon receptor,413 nM
same,Ki,human GLP-1 receptor,16.4 nM
B3,Ki,human GIP receptor,0.0523 nM
same,Ki,human glucagon receptor,255 nM
same,Ki,human GLP-1 receptor,3.84 nM
B4,Ki,human GIP receptor,0.0499 nM
same,Ki,human glucagon receptor,161 nM
same,Ki,human GLP-1 receptor,16.8 nM

# Reference: US20200024322A1 (Eli Lilly, published 2020)
